Laboratory results: paper PMC5554155

Assay: immunoblot, N-terminal Flag vs C-terminal epitopes, ldlD cells
Conditions: glycan lost; control: WT Ser49-β1AR, ldlD cells with Gal/GalNAc

Substance	other: proteolytic processing
β1-adrenergic receptor (β1AR): N15A	no change
β1-adrenergic receptor (β1AR): ldlD cells without Gal/GalNAc	increases
